# From patent US20190015483A1 (CSL BEHRING RECOMBINANT FACILITY, published 2019)
# T1: recombinant Factor VIII (CSL627, rVIII-SingleChain) (Homo sapiens (Human), UniProt P00451 20-2351)
# T1 construct: also called FVIII
# T1 sequence: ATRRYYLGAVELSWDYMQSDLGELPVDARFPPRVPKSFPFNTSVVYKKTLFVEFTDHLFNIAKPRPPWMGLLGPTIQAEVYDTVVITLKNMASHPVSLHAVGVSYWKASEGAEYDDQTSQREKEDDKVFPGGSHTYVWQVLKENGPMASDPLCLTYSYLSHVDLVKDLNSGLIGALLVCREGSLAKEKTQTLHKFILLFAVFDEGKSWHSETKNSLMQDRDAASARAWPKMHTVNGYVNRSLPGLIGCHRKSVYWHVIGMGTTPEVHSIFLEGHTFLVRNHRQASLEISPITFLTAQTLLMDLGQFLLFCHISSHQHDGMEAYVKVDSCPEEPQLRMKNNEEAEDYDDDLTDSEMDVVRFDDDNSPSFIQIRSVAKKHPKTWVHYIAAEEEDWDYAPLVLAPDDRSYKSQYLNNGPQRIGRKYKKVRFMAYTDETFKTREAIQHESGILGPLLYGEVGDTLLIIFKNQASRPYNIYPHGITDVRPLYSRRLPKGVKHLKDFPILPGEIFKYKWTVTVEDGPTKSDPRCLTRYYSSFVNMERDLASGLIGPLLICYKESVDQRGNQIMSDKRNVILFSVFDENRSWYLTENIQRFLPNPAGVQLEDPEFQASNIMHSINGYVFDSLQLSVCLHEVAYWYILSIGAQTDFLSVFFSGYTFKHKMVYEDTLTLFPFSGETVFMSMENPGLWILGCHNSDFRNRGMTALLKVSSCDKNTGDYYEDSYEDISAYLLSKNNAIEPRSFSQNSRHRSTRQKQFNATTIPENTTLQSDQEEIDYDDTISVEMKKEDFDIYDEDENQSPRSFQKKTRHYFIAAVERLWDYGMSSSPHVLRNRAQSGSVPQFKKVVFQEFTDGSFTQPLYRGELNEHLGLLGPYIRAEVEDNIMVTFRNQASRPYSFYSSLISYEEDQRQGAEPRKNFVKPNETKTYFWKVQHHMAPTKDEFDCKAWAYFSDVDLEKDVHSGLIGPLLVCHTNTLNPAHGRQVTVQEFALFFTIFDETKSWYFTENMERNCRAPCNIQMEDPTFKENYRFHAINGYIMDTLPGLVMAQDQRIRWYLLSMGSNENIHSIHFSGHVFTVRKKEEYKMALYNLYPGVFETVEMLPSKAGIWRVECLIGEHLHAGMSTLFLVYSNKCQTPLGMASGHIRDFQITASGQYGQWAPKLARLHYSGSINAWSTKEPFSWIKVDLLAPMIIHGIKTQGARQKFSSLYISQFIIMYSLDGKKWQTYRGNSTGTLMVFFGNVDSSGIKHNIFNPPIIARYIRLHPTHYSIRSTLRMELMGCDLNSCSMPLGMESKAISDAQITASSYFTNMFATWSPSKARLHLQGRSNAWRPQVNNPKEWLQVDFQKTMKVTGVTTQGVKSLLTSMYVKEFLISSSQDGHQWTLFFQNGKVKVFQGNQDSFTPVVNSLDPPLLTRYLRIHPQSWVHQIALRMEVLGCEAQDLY
# Target: T1, recombinant Factor VIII (CSL627, …)
# Assay: SPR, anti-His capture, FVIII injected, 37 C
# Outline: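 His-tagged mutants were captured directly from culture medium onto an anti-His surface (14,000 RU) at 40-150 RU. FVIII at 1 nM was injected for 5 min, followed by 5 min dissociation. Double-referenced sensorgrams were fitted to a 1:1 kinetic model.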
Kd,koff,kon,binding result,Binder
0.245 nM,0.00134 s⁻¹,5.46e+06 M⁻¹ s⁻¹,–,Hu-vWF[764-1270]-8His S766W-S806G (other) SLWCRPPMVKLVCPADNLRAEGLECTKTCQNYDLECMSMGCVGGCLCPPGMVRHENRCVALERCPCFHQGKEYAPGETVKIGCNTCVCRDRKWNCTDHVCDATCSTIGMAHYLTFDGLKYLFPGECQYVLVQDYCGSNPGTFRILVGNKGCSHPSVKCKKRVTILVEGGEIELFDGEVNVKRPMKDETHFEVVESGRYIILLLGKALSVVWDRHLSISVVLKQTYQEKVCGLCGNFDGIQNNDLTSSNLQVEEDPVDFGNSWKVSSQCADTRKVPLDSSPATCHNNIMKQTMVDSSCRILTSDVFQDCNKLVDPEPYLDVCIYDTCSCESIGDCACFCDTIAAYAHVCAQHGKVVTWRTATLCPQSCEERNLRENGYECEWRYNSCAPACQVTCQHPEPLACPVQCVEGCHAHCPPGKILDELLQTCVDPEDCPVCEVAGRRFASGKKVTLNPSDPEHCQICHCDVVNLTCEACQEPGGLVVPPTDAPVSPTTLYVEDISEPPLHDFHHHHHHHH
–,–,–,no binding,Hu-vWF[764-1270]-8His S766W-S806F (other) SLWCRPPMVKLVCPADNLRAEGLECTKTCQNYDLECMSMGCVFGCLCPPGMVRHENRCVALERCPCFHQGKEYAPGETVKIGCNTCVCRDRKWNCTDHVCDATCSTIGMAHYLTFDGLKYLFPGECQYVLVQDYCGSNPGTFRILVGNKGCSHPSVKCKKRVTILVEGGEIELFDGEVNVKRPMKDETHFEVVESGRYIILLLGKALSVVWDRHLSISVVLKQTYQEKVCGLCGNFDGIQNNDLTSSNLQVEEDPVDFGNSWKVSSQCADTRKVPLDSSPATCHNNIMKQTMVDSSCRILTSDVFQDCNKLVDPEPYLDVCIYDTCSCESIGDCACFCDTIAAYAHVCAQHGKVVTWRTATLCPQSCEERNLRENGYECEWRYNSCAPACQVTCQHPEPLACPVQCVEGCHAHCPPGKILDELLQTCVDPEDCPVCEVAGRRFASGKKVTLNPSDPEHCQICHCDVVNLTCEACQEPGGLVVPPTDAPVSPTTLYVEDISEPPLHDFHHHHHHHH
0.093 nM,0.000828 s⁻¹,8.9e+06 M⁻¹ s⁻¹,–,Hu-vWF[764-1270]-8His S766W-S806H (other) SLWCRPPMVKLVCPADNLRAEGLECTKTCQNYDLECMSMGCVHGCLCPPGMVRHENRCVALERCPCFHQGKEYAPGETVKIGCNTCVCRDRKWNCTDHVCDATCSTIGMAHYLTFDGLKYLFPGECQYVLVQDYCGSNPGTFRILVGNKGCSHPSVKCKKRVTILVEGGEIELFDGEVNVKRPMKDETHFEVVESGRYIILLLGKALSVVWDRHLSISVVLKQTYQEKVCGLCGNFDGIQNNDLTSSNLQVEEDPVDFGNSWKVSSQCADTRKVPLDSSPATCHNNIMKQTMVDSSCRILTSDVFQDCNKLVDPEPYLDVCIYDTCSCESIGDCACFCDTIAAYAHVCAQHGKVVTWRTATLCPQSCEERNLRENGYECEWRYNSCAPACQVTCQHPEPLACPVQCVEGCHAHCPPGKILDELLQTCVDPEDCPVCEVAGRRFASGKKVTLNPSDPEHCQICHCDVVNLTCEACQEPGGLVVPPTDAPVSPTTLYVEDISEPPLHDFHHHHHHHH
0.425 nM,0.000872 s⁻¹,2.05e+06 M⁻¹ s⁻¹,–,Hu-vWF[764-1270]-8His S766W-S806M (other) SLWCRPPMVKLVCPADNLRAEGLECTKTCQNYDLECMSMGCVMGCLCPPGMVRHENRCVALERCPCFHQGKEYAPGETVKIGCNTCVCRDRKWNCTDHVCDATCSTIGMAHYLTFDGLKYLFPGECQYVLVQDYCGSNPGTFRILVGNKGCSHPSVKCKKRVTILVEGGEIELFDGEVNVKRPMKDETHFEVVESGRYIILLLGKALSVVWDRHLSISVVLKQTYQEKVCGLCGNFDGIQNNDLTSSNLQVEEDPVDFGNSWKVSSQCADTRKVPLDSSPATCHNNIMKQTMVDSSCRILTSDVFQDCNKLVDPEPYLDVCIYDTCSCESIGDCACFCDTIAAYAHVCAQHGKVVTWRTATLCPQSCEERNLRENGYECEWRYNSCAPACQVTCQHPEPLACPVQCVEGCHAHCPPGKILDELLQTCVDPEDCPVCEVAGRRFASGKKVTLNPSDPEHCQICHCDVVNLTCEACQEPGGLVVPPTDAPVSPTTLYVEDISEPPLHDFHHHHHHHH

# Further lines, the binder ahead of its results:
Binder,Kd,koff,kon,binding result
Hu-vWF[764-1270]-8His S766W-S806E (other) SLWCRPPMVKLVCPADNLRAEGLECTKTCQNYDLECMSMGCVEGCLCPPGMVRHENRCVALERCPCFHQGKEYAPGETVKIGCNTCVCRDRKWNCTDHVCDATCSTIGMAHYLTFDGLKYLFPGECQYVLVQDYCGSNPGTFRILVGNKGCSHPSVKCKKRVTILVEGGEIELFDGEVNVKRPMKDETHFEVVESGRYIILLLGKALSVVWDRHLSISVVLKQTYQEKVCGLCGNFDGIQNNDLTSSNLQVEEDPVDFGNSWKVSSQCADTRKVPLDSSPATCHNNIMKQTMVDSSCRILTSDVFQDCNKLVDPEPYLDVCIYDTCSCESIGDCACFCDTIAAYAHVCAQHGKVVTWRTATLCPQSCEERNLRENGYECEWRYNSCAPACQVTCQHPEPLACPVQCVEGCHAHCPPGKILDELLQTCVDPEDCPVCEVAGRRFASGKKVTLNPSDPEHCQICHCDVVNLTCEACQEPGGLVVPPTDAPVSPTTLYVEDISEPPLHDFHHHHHHHH,0.217 nM,0.00129 s⁻¹,5.93e+06 M⁻¹ s⁻¹,–
Hu-vWF[764-1270]-8His S766W-S806I (other) SLWCRPPMVKLVCPADNLRAEGLECTKTCQNYDLECMSMGCVIGCLCPPGMVRHENRCVALERCPCFHQGKEYAPGETVKIGCNTCVCRDRKWNCTDHVCDATCSTIGMAHYLTFDGLKYLFPGECQYVLVQDYCGSNPGTFRILVGNKGCSHPSVKCKKRVTILVEGGEIELFDGEVNVKRPMKDETHFEVVESGRYIILLLGKALSVVWDRHLSISVVLKQTYQEKVCGLCGNFDGIQNNDLTSSNLQVEEDPVDFGNSWKVSSQCADTRKVPLDSSPATCHNNIMKQTMVDSSCRILTSDVFQDCNKLVDPEPYLDVCIYDTCSCESIGDCACFCDTIAAYAHVCAQHGKVVTWRTATLCPQSCEERNLRENGYECEWRYNSCAPACQVTCQHPEPLACPVQCVEGCHAHCPPGKILDELLQTCVDPEDCPVCEVAGRRFASGKKVTLNPSDPEHCQICHCDVVNLTCEACQEPGGLVVPPTDAPVSPTTLYVEDISEPPLHDFHHHHHHHH,0.283 nM,0.000447 s⁻¹,1.58e+06 M⁻¹ s⁻¹,–
Hu-vWF[764-1270]-8His S766W-S806N (other) SLWCRPPMVKLVCPADNLRAEGLECTKTCQNYDLECMSMGCVNGCLCPPGMVRHENRCVALERCPCFHQGKEYAPGETVKIGCNTCVCRDRKWNCTDHVCDATCSTIGMAHYLTFDGLKYLFPGECQYVLVQDYCGSNPGTFRILVGNKGCSHPSVKCKKRVTILVEGGEIELFDGEVNVKRPMKDETHFEVVESGRYIILLLGKALSVVWDRHLSISVVLKQTYQEKVCGLCGNFDGIQNNDLTSSNLQVEEDPVDFGNSWKVSSQCADTRKVPLDSSPATCHNNIMKQTMVDSSCRILTSDVFQDCNKLVDPEPYLDVCIYDTCSCESIGDCACFCDTIAAYAHVCAQHGKVVTWRTATLCPQSCEERNLRENGYECEWRYNSCAPACQVTCQHPEPLACPVQCVEGCHAHCPPGKILDELLQTCVDPEDCPVCEVAGRRFASGKKVTLNPSDPEHCQICHCDVVNLTCEACQEPGGLVVPPTDAPVSPTTLYVEDISEPPLHDFHHHHHHHH,0.152 nM,0.000585 s⁻¹,3.84e+06 M⁻¹ s⁻¹,–
Hu-vWF[764-1270]-8His S766W-S806L (other) SLWCRPPMVKLVCPADNLRAEGLECTKTCQNYDLECMSMGCVLGCLCPPGMVRHENRCVALERCPCFHQGKEYAPGETVKIGCNTCVCRDRKWNCTDHVCDATCSTIGMAHYLTFDGLKYLFPGECQYVLVQDYCGSNPGTFRILVGNKGCSHPSVKCKKRVTILVEGGEIELFDGEVNVKRPMKDETHFEVVESGRYIILLLGKALSVVWDRHLSISVVLKQTYQEKVCGLCGNFDGIQNNDLTSSNLQVEEDPVDFGNSWKVSSQCADTRKVPLDSSPATCHNNIMKQTMVDSSCRILTSDVFQDCNKLVDPEPYLDVCIYDTCSCESIGDCACFCDTIAAYAHVCAQHGKVVTWRTATLCPQSCEERNLRENGYECEWRYNSCAPACQVTCQHPEPLACPVQCVEGCHAHCPPGKILDELLQTCVDPEDCPVCEVAGRRFASGKKVTLNPSDPEHCQICHCDVVNLTCEACQEPGGLVVPPTDAPVSPTTLYVEDISEPPLHDFHHHHHHHH,–,–,–,no binding
